Assay [1] has as its target T1, active hMMP-9(cat)_His6 (UniProt P14780 107-449). The assay is described as follows: enzyme inhibition; substrate peptide.
Another assay deals with active hMMP-9(cat)_Y423A (UniProt P14780 107-449). In words: substrate peptide enzyme inhibition.
The target of another assay is active hMMP-9(cat)_R424T (UniProt P14780 107-449). The assay is described as follows: substrate peptide enzyme inhibition.
A further assay concerns the target active hMMP-9(cat)_Y393A (UniProt P14780 107-449). In words: substrate peptide enzyme inhibition.
For another assay, the target named is active hMMP-9(cat)_Y420A (UniProt P14780 107-449). The assay is described as follows: substrate peptide enzyme inhibition.
Sequence of active hMMP-9(cat)_Y420A (P14780 107-449 Y420A): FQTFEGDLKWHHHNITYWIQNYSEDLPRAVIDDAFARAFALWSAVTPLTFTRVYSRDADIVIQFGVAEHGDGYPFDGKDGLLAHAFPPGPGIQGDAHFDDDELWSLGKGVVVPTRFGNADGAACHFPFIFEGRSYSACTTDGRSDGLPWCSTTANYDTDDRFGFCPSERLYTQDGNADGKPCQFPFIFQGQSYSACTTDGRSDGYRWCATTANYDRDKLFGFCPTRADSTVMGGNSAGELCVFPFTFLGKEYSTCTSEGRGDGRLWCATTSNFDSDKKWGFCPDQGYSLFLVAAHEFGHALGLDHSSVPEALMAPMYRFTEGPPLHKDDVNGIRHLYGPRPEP
In the next assay the target is active hMMP-9(cat)_V398A (UniProt P14780 107-449). The assay is described as follows: substrate peptide enzyme inhibition.
Sequence of active hMMP-9(cat)_V398A (P14780 107-449 V398A): as the sequence (P14780 107-449 Y420A) above, with V292A, A314Y counted along it
Another assay concerns the target active hMMP-9(cat)_M422I (UniProt P14780 107-449). In words: substrate peptide enzyme inhibition.
The target of another assay is active hMMP-9(cat)_L397A (UniProt P14780 107-449). In words: substrate peptide enzyme inhibition.
Sequence of active hMMP-9(cat)_L397A (P14780 107-449 L397A): as the sequence (P14780 107-449 Y420A) above, with L291A, A314Y counted along it
For assay [2], the target named is T1, active hMMP-9(cat)_His6. The assay is described as follows: enzyme inhibition; substrate peptide. This is another data set of the same source.
The target in a further assay is active hMMP-9(cat)_F192A (UniProt P14780 107-449). In words: substrate peptide degradation inhibition.
Sequence of active hMMP-9(cat)_F192A (P14780 107-449 F192A): as the sequence (P14780 107-449 Y420A) above, with F86A, A314Y counted along it
For the next assay, the target named is active hMMP-9(cat)_F110A (UniProt P14780 107-449). In words: substrate peptide degradation inhibition.
Sequence of active hMMP-9(cat)_F110A (P14780 107-449 F110A): as the sequence (P14780 107-449 Y420A) above, with F4A, A314Y counted along it
In the next assay the target is active hMMP-9(cat)_L187A (UniProt P14780 107-449). In words: substrate peptide degradation inhibition.
Sequence of active hMMP-9(cat)_L187A (P14780 107-449 L187A): as the sequence (P14780 107-449 Y420A) above, with L81A, A314Y counted along it
The next assay has as its target active hMMP-9(cat)_Y179A (UniProt P14780 107-449). In words: substrate peptide degradation inhibition.

These results are taken from patent publication US20200231654A1 (published 2020).

Substitutions are numbered along the chain they refer to. Like-named read-outs stand apart in the source and are kept apart here.

Sequence of active hMMP-9(cat)_Y393A (P14780 107-449 Y393A): as the sequence (P14780 107-449 Y420A) above, with Y287A, A314Y counted along it
Sequence of active hMMP-9(cat)_M422I (P14780 107-449 M422I): as the sequence (P14780 107-449 Y420A) above, with A314Y, M316I counted along it
Sequence of active hMMP-9(cat)_Y423A (P14780 107-449 Y423A): as the sequence (P14780 107-449 Y420A) above, with A314Y, Y317A counted along it
Sequence of active hMMP-9(cat)_Y179A (P14780 107-449 Y179A): as the sequence (P14780 107-449 Y420A) above, with Y73A, A314Y counted along it
T1 sequence (P14780 107-449): as the sequence (P14780 107-449 Y420A) above, with A314Y counted along it
Sequence of active hMMP-9(cat)_R424T (P14780 107-449 R424T): as the sequence (P14780 107-449 Y420A) above, with A314Y, R318T counted along it

B1: active MMP-9-binding peptide M91002 (designed binder)
chain: GSGMKETAAAKFERQHMDSPDLGTDDDDKAMADIGSANSDPQFGLFSKYRTPNCRTGRGPACQMGFQPVCGSDMSTYANECTLCMKIREGGHNIKIIRNGPCGASAAA
B1: 5 nM corresponded to half-maximal inhibition in the assay with active hMMP-9(cat)_His6 [1] (IC50).

B2: active MMP-9-binding peptide M91005 (designed binder)
chain: B1 chain with T56K, G57R, R58G, A61S, G65S, F66Y, Q67N
In the case of B2, the half-inhibitory concentration (IC50) worked out at 230 nM with active hMMP-9(cat)_Y423A; 31 nM with active hMMP-9(cat)_R424T; 48 nM with active hMMP-9(cat)_Y393A; 54 nM with active hMMP-9(cat)_Y420A; 39 nM with active hMMP-9(cat)_V398A; 45 nM in the assay with active hMMP-9(cat)_M422I. The 50% inhibitory concentration (IC50) was 37 nM with active hMMP-9(cat)_L397A; 1.1 nM with active hMMP-9(cat)_His6 [2]; over 1000 nM with active hMMP-9(cat)_F192A; 69 nM in the assay with active hMMP-9(cat)_F110A; 120 nM in the assay with active hMMP-9(cat)_L187A; 55 nM with active hMMP-9(cat)_Y179A.

B3: active MMP-9-binding peptide M91011 (designed binder)
chain: GSGMKETAAAKFERQHMDSPDLGTDDDDKAMADIGSANSDPQFGLFSKYRTPNCMMYKYAQCSHKSQPVCGSDMSTYANECTLCMKIREGGHNIKIIRNGPCGASAAA
Consider B3, for which the half-inhibitory concentration (IC50) was over 330 nM with active hMMP-9(cat)_Y423A; 45 nM in the assay with active hMMP-9(cat)_R424T; over 950 nM in the assay with active hMMP-9(cat)_Y393A; 33 nM with active hMMP-9(cat)_Y420A; 79 nM with active hMMP-9(cat)_V398A; 43 nM in the assay with active hMMP-9(cat)_M422I. Further, the half-inhibitory concentration (IC50) stood at 57 nM in the assay with active hMMP-9(cat)_L397A, 83 nM in the assay with active hMMP-9(cat)_F192A, 7.3 nM with active hMMP-9(cat)_F110A and 81 nM with active hMMP-9(cat)_Y179A.
